Measurements as given in publication PMC7127797 (Virus Research, 2004).

Biological target: SARS-CoV nucleocapsid (N) protein, full length, in the pM vector (pM-N) (SARS-CoV, UniProt P59595 1-422)
Test: two-hybrid

SARS-CoV nucleocapsid (N) protein, full length, in the pM vector (pM-N), sequence (P59595 whole entry): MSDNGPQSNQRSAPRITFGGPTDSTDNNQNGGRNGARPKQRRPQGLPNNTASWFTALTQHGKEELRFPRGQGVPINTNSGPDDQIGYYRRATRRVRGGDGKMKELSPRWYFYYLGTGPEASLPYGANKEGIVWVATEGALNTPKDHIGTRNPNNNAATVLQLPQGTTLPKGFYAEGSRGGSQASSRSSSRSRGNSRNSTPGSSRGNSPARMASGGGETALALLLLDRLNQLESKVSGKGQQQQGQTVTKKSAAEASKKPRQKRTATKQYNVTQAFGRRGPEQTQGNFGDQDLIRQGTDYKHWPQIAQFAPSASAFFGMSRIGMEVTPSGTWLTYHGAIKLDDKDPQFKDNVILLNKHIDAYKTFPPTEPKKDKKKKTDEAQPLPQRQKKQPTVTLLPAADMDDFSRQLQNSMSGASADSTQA

B1: SARS-CoV membrane (M) protein in the pVP16 vector (pVP16-M) (natural protein)
chain: MADNGTITVEELKQLLEQWNLVIGFLFLAWIMLLQFAYSNRNRFLYIIKLVFLWLLWPVTLACFVLAAVYRINWVTGGIAIAMACIVGLMWLSYFVASFRLFARTRSMWSFNPETNILLNVPLRGTIVTRPLMESELVIGAVIIRGHLRMAGHSLGRCDIKDLPKEITVATSRTLSYYKLGASQRVGTDSGFAAYNRYRIGNYKLNTDHAGSNDNIALLVQ
fold chemiluminescence (SEAP) over controls: > 5 fold
